# Experimental data reported in the supplement of paper PMC12667976.
# ± gives the standard error.
# B1: library; numbered along this chain (parent)
# chain: MATDAALRRLLRLHRTEIAVAVDSAFPLLHALADHDVVPEDKFQETLHLKEKEGCPQAFHALLSWLLTQDSTAILDFWRVLFKDYNLERYGRLQPILDSFPKDVDLSQPRKGRKPPAVPKALVPPPRLPTKRKASEEARAAAPAALTPRGTASPGSQLKAKPPKKPESSAEQQRLPLGNGIQTMSASVQRAVAMSSGDVPGARGAVEGILIQQVFESGGSKKCIQVGGEFYTPSKFEDSGSGKNKARSSSGPKPLVRAKGAQGAAPGGGEARLGQQGSVPAPLALPSDPQLHQKNEDECAVCRDGGELICCDGCPRAFHLACLSPPLREIPSGTWRCSSCLQATVQEVQPRAEEPRPQEPPVETPLPPGLRSAGEEVRGPPGEPLAGMDTTLVYKHLPAPPSAAPLPGLDSSALHPLLCVGPEGQQNLAPGARCGVCGDGTDVLRCTHCAAAFHWRCHFPAGTSRPGTGLRCRSCSGDVTPAPVEGVLAPSPARLAPGPAKDDTASHEPALHRDDLESLLSEHTFDGILQWAIQSMARPAAPFPS
# Variants of: B1
# Assay: AIRE transcriptional activation functional score (insulin promoter-GFP; nonsense median 0, synonymous median 1) (normalised score); higher = higher AIRE activity (more reporter activation)
# Details: with insulin promoter-GFP reporter in HEK293
# How it was run: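 Using Bxb1 recombinase, codon-optimized NNN-codon libraries for three AIRE regions were inserted into Flp-In T-REx HEK293 landing-pad cells with an insulin core promoter-GFP reporter. After integrants (mCherry+, BFP−) were sorted at day 7 and expanded for 7 days, the top 10% GFP and unselected integrant populations underwent tile-sequencing. Functional scores are wild-type-subtracted enrichments of variants in select over non-select samples. A cutoff of 10 counts per million in non-select applied, and values were rescaled (nonsense median 0, synonymous median 1) and averaged over biological replicates.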
row,Variant,AIRE transcriptional activation functional score
1,L67Q,-0.874 ± 0.39
2,K221W,0.337 ± 0.028
3,S239V,1.13 ± 0.54
4,S239P,1.06 ± 0.48
5,S239Y,1.43 ± 0.23
6,D70F,-0.152 ± 0.57
7,I96A,-0.165 ± 0.33
8,I96C,-0.194 ± 0.18
9,P233N,1.51 ± 0.2
10,G435N,0.945 ± 0.14
11,G435E,0.463 ± 0.17
12,D410N,1.12 ± 0.066
13,Q425M,0.974 ± 0.078
14,A541P,0.791 ± 0.2
15,C310V,0.912 ± 0.21
16,A144K,0.364 ± 0.24
17,G438T,0.646 ± 0.18
18,G438I,1.08 ± 0.32
19,F236R,0.401 ± 0.25
20,F236I,1.01 ± 0.17
21,L519C,0.313 ± 0.18
22,N244V,0.206 ± 0.086
23,N179H,1.97 ± 0.35
24,N179F,0.503 ± 0.13
25,L81N,1.87 ± 0.082

row,Variant,AIRE transcriptional activation functional score
1,M388C,0.979 ± 0.082
2,S220V,0.743 ± 0.84
3,G227M,-1.01 ± 0.066
4,C419K,1.17 ± 0.096
5,P162Y,2.9 ± 0.096
6,P162H,2.88 ± 0.062
7,Q172V,1.18 ± 0.13
8,A73G,-0.592 ± 0.48
9,T232V,1.07 ± 0.18
10,G424I,-0.488 ± 0.22
11,P400H,0.71 ± 0.14
12,S545Y,1.35 ± 0.053
13,I18R,0.483 ± 0.28
14,I18D,0.751 ± 0.068
15,G469K,0.564 ± 0.23
16,S474R,0.817 ± 0.32
17,G379E,1 ± 0.054
18,L488H,0.298 ± 0.17
19,H458L,0.474 ± 0.18
20,M536A,0.0376 ± 0.42
21,I309N,1.23 ± 0.053
22,I309Q,0.905 ± 0.18
23,A25C,0.493 ± 0.17
24,L175F,1.16 ± 0.46
25,T524I,0.0345 ± 0.14

row,Variant,AIRE transcriptional activation functional score
1,C457V,0.0733 ± 0.26
2,A284T,0.876 ± 0.2
3,A33P,-0.0164 ± 0.67
4,P116Y,1.17 ± 0.12
5,C322V,0.9 ± 0.12
6,P154A,0.676 ± 0.42
7,P154V,0.461 ± 0.49
8,K83M,-0.821 ± 0.059
9,D41G,0.147 ± 0.57
10,S535F,0.394 ± 0.19
11,T390A,0.741 ± 0.31
12,L414V,1.1 ± 0.41
13,D23P,-0.613 ± 0.43
14,P109Q,0.797 ± 0.078
15,C446W,-0.0678 ± 0.057
16,L529N,-0.625 ± 0.46
17,S411V,1.06 ± 0.29
18,S411W,1.31 ± 0.045
19,S411E,0.407 ± 0.085
20,E207N,0.371 ± 0.19
21,C437V,0.168 ± 0.1
22,P143S,0.96 ± 0.3
23,V479T,0.956 ± 0.13
24,E354S,0.901 ± 0.15
25,P163Q,1.05 ± 0.86

row,Variant,AIRE transcriptional activation functional score
1,G267D,0.595 ± 0.051
2,G267C,1.11 ± 0.2
3,A404T,1.04 ± 0.15
4,K245R,0.472 ± 0.41
5,T441F,0.823 ± 0.34
6,H512L,0.941 ± 0.28
7,L392S,1.43 ± 0.11
8,H30Q,-0.357 ± 0.12
9,R247P,0.344 ± 0.24
10,P315F,0.835 ± 0.26
11,S287V,0.972 ± 0.26
12,G201F,1.02 ± 0.2
13,V38W,-0.576 ± 0.14
14,A2P,1.55 ± 0.37
15,K161M,0.88 ± 0.068
16,K161E,0.442 ± 0.38
17,S491M,1.31 ± 0.12
18,L66A,0.62 ± 0.47
19,A413H,0.905 ± 0.19
20,W78R,-0.0677 ± 0.38
21,H60F,1.06 ± 0.24
22,G498N,0.869 ± 0.32
23,S195N,0.649 ± 0.43
24,P166C,1.43 ± 0.72
25,P166R,0.947 ± 0.72

row,Variant,AIRE transcriptional activation functional score
1,R92D,0.169 ± 0.97
2,R92T,-0.129 ± 0.97
3,A271G,0.722 ± 0.38
4,A281D,0.674 ± 0.04
5,A205G,0.764 ± 0.2
6,E508Q,1.03 ± 0.18
7,A138V,1.1 ± 0.37
8,A138E,1.11 ± 0.33
9,P539F,0.224 ± 0.097
10,E53Y,-0.0622 ± 1.2
11,M184R,0.932 ± 0.42
12,R203E,-0.0204 ± 0.28
13,G204S,0.807 ± 0.19
14,L106Q,-0.722 ± 0.74
15,E485C,1.24 ± 0.047
16,V123L,1.28 ± 0.27
17,L385W,1.56 ± 0.041
18,N295P,1.05 ± 0.3
19,N295D,0.921 ± 0.23
20,C55S,-0.196 ± 0.59
21,D503T,1.41 ± 0.089
22,D503I,0.789 ± 0.28
23,R456F,-0.0642 ± 0.14
24,R456E,1.24 ± 0.15
25,A31D,0.894 ± 0.32

row,Variant,AIRE transcriptional activation functional score
1,T364S,0.643 ± 0.38
2,R79G,0.275 ± 0.28
3,F459R,0.444 ± 0.11
4,F459N,1.27 ± 0.12
5,F459S,0.591 ± 0.26
6,P492V,1.07 ± 0.25
7,D238M,0.876 ± 0.11
8,V80I,1.57 ± 0.32
9,I224Q,0.197 ± 0.19
10,V199F,1.24 ± 0.24
11,Q94Y,0.209 ± 0.094
12,Q94F,0.133 ± 0.15
13,V192P,0.706 ± 0.37
14,V192K,1.14 ± 0.042
15,S168T,1.06 ± 0.4
16,L327D,0.96 ± 0.2
17,S521F,0.695 ± 0.12
18,S521N,0.923 ± 0.2
19,L283G,0.798 ± 0.17
20,G440D,0.799 ± 0.89
21,P125V,1.19 ± 0.25
22,P125R,0.79 ± 0.34
23,F525G,0.0436 ± 0.1
24,F525R,-0.845 ± 0.21
25,K235I,0.627 ± 0.32

row,Variant,AIRE transcriptional activation functional score
1,S185P,0.302 ± 0.12
2,G180P,-1.38 ± 0.43
3,G180N,1.23 ± 0.37
4,P405T,1.16 ± 0.16
5,P405C,1.59 ± 0.17
6,R8D,0.401 ± 0.51
7,K243N,1.06 ± 0.12
8,K243P,0.97 ± 0.07
9,L285R,1.02 ± 0.33
10,V256H,0.851 ± 0.23
11,K501L,0.792 ± 0.26
12,F543T,0.669 ± 0.16
13,C340Y,0.989 ± 0.045
14,P355M,0.914 ± 0.015
15,D312G,0.92 ± 0.28
16,D312L,0.872 ± 0.38
17,P124A,0.614 ± 0.46
18,K222F,-0.315 ± 0.37
19,S169M,0.503 ± 0.25
20,S169D,1.22 ± 0.41
21,R316F,0.43 ± 0.25
22,A265F,1.53 ± 0.34
23,A265D,0.751 ± 0.27
24,G369C,1.25 ± 0.12
25,G369Q,1.43 ± 0.18

row,Variant,AIRE transcriptional activation functional score
1,P39S,0.402 ± 1.2
2,Q225C,-0.424 ± 0.056
3,Q426A,-0.467 ± 0.31
4,E45V,0.134 ± 0.25
5,E45Y,-0.129 ± 0.15
6,A461V,1.17 ± 0.24
7,A461N,1.38 ± 0.038
8,A461Q,0.964 ± 0.089
9,F100W,1.58 ± 0.18
10,F100I,0.0995 ± 0.63
11,A141L,1.36 ± 0.4
12,R303D,0.544 ± 0.19
13,H35A,0.00595 ± 0.49
14,H35S,0.352 ± 0.36
15,A193H,1.81 ± 0.18
16,F82Y,0.443 ± 0.26
17,F82K,-0.492 ± 0.079
18,D439I,0.279 ± 0.21
19,P357M,1.29 ± 0.051
20,L47S,0.462 ± 0.4
21,R174K,0.973 ± 0.29
22,A386I,0.514 ± 0.21
23,Q213G,0.977 ± 0.42
24,Y90Q,-0.537 ± 1.1
25,F453T,0.101 ± 0.19

row,Variant,AIRE transcriptional activation functional score
1,E270G,1.11 ± 0.2
2,S476G,0.844 ± 0.26
3,S476F,1.21 ± 0.13
4,E376D,0.34 ± 0.18
5,C434K,-0.158 ± 0.1
6,C434G,0.163 ± 0.16
7,C434Y,0.0941 ± 0.11
8,Q293T,-0.386 ± 0.78
9,A6V,0.772 ± 0.51
10,P280E,1.13 ± 0.23
11,L397E,0.622 ± 0.073
12,L397R,0.938 ± 0.22
13,F26G,-0.298 ± 0.2
14,D84P,0.652 ± 0.47
15,V22N,-0.13 ± 0.44
16,V22A,0.0736 ± 0.4
17,R149K,0.675 ± 0.64
18,R149W,1.11 ± 0.26
19,Q262T,0.795 ± 0.28
20,C299V,0.501 ± 0.26
21,Q275P,1.19 ± 0.28
22,A510W,0.663 ± 0.12
23,D304W,1.21 ± 0.059
24,V487P,1.04 ± 0.099
25,F59D,0.139 ± 0.28

row,Variant,AIRE transcriptional activation functional score
1,V377S,0.916 ± 0.21
2,F230G,0.617 ± 0.19
3,S135Y,0.884 ± 0.32
4,S24Y,0.463 ± 0.17
5,M194Q,0.907 ± 0.12
6,K42L,0.0963 ± 0.73
7,A317R,0.922 ± 0.29
8,A317Y,0.503 ± 0.2
9,T504K,0.99 ± 0.18
10,P460S,0.714 ± 0.33
11,Q342F,1.08 ± 0.11
12,F77C,0.198 ± 0.17
13,A352K,0.997 ± 0.11
14,D514C,0.246 ± 0.18
15,G467W,1.12 ± 0.12
16,N427G,1 ± 0.29
17,A186L,0.0294 ± 0.29
18,A537E,0.915 ± 0.53
19,G155W,1.83 ± 0.1
20,V393L,1.2 ± 0.14
21,L87W,-0.816 ± 0.6
22,L87G,0.476 ± 2.1
23,P95R,0.995 ± 0.8
24,R371P,0.614 ± 0.2
25,R371W,1.77 ± 0.072

row,Variant,AIRE transcriptional activation functional score
1,L29V,0.342 ± 0.35
2,L29H,-0.121 ± 0.22
3,R445Q,0.898 ± 0.28
4,L32H,-0.413 ± 0.21
5,L32P,-0.841 ± 0.94
6,P497T,1.09 ± 0.23
7,G260W,1.18 ± 0.024
8,Q44M,-0.749 ± 0.2
9,Q44L,0.658 ± 0.61
10,K50S,2.07 ± 0.82
11,K50L,0.404 ± 0.62
12,L291N,0.0689 ± 0.21
13,L10V,-0.151 ± 0.34
14,D198V,0.978 ± 0.15
15,S71V,0.229 ± 0.31
16,L370K,0.92 ± 0.34
17,K159M,0.791 ± 0.066
18,S332F,1.34 ± 0.16
19,K111L,1.65 ± 0.63
20,P367V,0.854 ± 0.29
